Consider nine molecules from publication PMC11701102, “Structural insights into the interplay between microtubule polymerases, γ-tubulin complexes and their receptors” (Nature Communications, 2025).

The target in data set [1] is MBP-Spc72^231-268 (C. albicans) (UniProt Q5AGV5). Description: SEC; MBP-CM1 constructs at 100 µM. (In general: Size exclusion chromatography separates by hydrodynamic size, large species first.)
Data set [2] has as its target T1, FLAG-Stu2^∆666-768 (coiled-coil deletion mutant) (C. albicans, UniProt A0A1D8PTZ8 1-924, ∆666-768).
T1 construct: Stu2, C. albicans (Met1 to Glu924), coiled-coil region 666-768 deleted
T1 sequence: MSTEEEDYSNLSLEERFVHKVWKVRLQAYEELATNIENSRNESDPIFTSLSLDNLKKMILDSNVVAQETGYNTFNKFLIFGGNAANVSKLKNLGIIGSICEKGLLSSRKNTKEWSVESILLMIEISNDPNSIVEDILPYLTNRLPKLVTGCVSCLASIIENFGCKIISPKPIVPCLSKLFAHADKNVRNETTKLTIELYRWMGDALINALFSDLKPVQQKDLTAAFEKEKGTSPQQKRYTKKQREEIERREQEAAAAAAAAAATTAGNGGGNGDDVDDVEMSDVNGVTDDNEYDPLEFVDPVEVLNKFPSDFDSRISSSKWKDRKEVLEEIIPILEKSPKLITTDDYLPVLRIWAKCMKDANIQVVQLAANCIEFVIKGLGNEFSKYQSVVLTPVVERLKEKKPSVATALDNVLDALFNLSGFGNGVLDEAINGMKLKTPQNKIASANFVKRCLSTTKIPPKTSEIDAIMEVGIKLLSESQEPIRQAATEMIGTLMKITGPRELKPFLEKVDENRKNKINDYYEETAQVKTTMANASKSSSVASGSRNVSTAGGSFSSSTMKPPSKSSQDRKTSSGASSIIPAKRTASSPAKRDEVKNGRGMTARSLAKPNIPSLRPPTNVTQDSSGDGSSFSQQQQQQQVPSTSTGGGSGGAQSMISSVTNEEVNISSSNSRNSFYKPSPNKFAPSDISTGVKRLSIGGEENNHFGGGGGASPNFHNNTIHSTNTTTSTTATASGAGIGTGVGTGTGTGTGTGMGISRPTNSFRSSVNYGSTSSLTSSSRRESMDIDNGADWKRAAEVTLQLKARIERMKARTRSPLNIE
As to the kind of experiment: pull-down; FLAG-Stu2 variants from insect cell lysate on anti-FLAG M2 gel, washed, then 20 µg purified Spc72 fragments from E. coli added for 1 h; 200 mM NaCl; eluted with 3xFLAG peptide, Western blot; also called IP or co-IP. To be noted: both partners purified.

For data set [3], the target named is T2, FLAG-Stu2 (C. albicans, full length) (C. albicans, UniProt A0A1D8PTZ8 1-924).
T2 construct: Stu2, C. albicans, full-length Met1 to Glu924; FLAG tag followed by an HRV 3C cleavage site at the 5' end; also called wild-type FLAG-Stu2; source: Sf21 insect cells; not shown: FLAG, N-terminal, kept
T2 sequence (looked up): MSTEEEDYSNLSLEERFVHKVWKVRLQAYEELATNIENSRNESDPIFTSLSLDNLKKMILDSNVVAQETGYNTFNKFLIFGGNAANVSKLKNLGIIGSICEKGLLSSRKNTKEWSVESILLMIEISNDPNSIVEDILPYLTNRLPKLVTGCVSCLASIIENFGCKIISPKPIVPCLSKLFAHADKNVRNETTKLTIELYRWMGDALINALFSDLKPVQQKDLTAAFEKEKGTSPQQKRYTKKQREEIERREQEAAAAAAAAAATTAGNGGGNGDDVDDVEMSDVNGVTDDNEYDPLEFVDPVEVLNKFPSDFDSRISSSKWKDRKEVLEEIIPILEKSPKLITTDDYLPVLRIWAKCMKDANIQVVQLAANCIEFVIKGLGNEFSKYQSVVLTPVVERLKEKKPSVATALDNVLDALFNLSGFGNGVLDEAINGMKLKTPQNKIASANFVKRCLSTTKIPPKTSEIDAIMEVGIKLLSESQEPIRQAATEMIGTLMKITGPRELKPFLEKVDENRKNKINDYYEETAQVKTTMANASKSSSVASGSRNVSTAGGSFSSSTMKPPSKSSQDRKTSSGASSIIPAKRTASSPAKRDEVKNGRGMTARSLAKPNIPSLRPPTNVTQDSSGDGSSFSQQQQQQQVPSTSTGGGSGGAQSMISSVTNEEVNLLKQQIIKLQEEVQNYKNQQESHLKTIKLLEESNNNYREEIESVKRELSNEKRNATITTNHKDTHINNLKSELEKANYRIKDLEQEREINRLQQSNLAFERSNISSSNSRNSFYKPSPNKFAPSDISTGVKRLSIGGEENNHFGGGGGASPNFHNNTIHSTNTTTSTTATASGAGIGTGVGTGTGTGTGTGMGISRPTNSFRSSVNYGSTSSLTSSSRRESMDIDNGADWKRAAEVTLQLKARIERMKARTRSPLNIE
The data set is described as above. As to conditions: both partners purified.

Data set [4] addresses T3, FLAG-tagged γ-TuSC (FLAG-Spc98, His-Spc97, γ-tubulin) (C. albicans, UniProt A0A1D8PS42 1-785; Q59PZ2 1-871; O93807 1-502).
T3 construct: Spc98, C. albicans; Spc97, C. albicans; γ-tubulin (Tub4), C. albicans; also called FLAG-γ-TuSC; copies: + +
Description: pull-down; FLAG-γ-TuSC (FLAG-Spc98) from insect cell lysate on anti-FLAG M2 gel, washed, then 20 µg purified His-Spc72 added for 1 h; 150 mM NaCl; eluted with 3xFLAG peptide, Western blot; called co-IP in the text. To be noted: both partners purified.

Data set [5] deals with the molecule itself. Description: cryo-EM structure; γ-TuSC/Spc72^1-599/FLAG-Stu2 complex purified via FLAG-Stu2; single particle analysis, γ-TuSC unit within oligomers at 3.6 Å, 14-spoked ring at 8.2 Å.
Data set [6] concerns the molecule itself. Description: SEC-MALS + other: mass photometry; FLAG-Stu2 (10 µM) and His-Spc72^291-599 (60 µM) alone or mixed 1:1 (vol), Superdex 200 Increase 5/150, 50 mM Tris-HCl pH 7.5, 150 mM NaCl, room temperature; mass photometry below 40 nM.
The target in data set [7] is GST-CM1^231-268 (GST-Spc72^231-268) (C. albicans) (UniProt Q5AGV5). As to the kind of experiment: mass photometry; MBP-CM1 and GST-CM1 constructs diluted to below 40 nM in SEC buffer; for the GST constructs: GST-mediated dimers to tetramers.
The target of data set [8] is γ-tubulin small complex (γ-TuSC) from C. albicans: His-Spc97, His-Spc98, γ-tubulin (Tub4) (C. albicans, UniProt Q59PZ2 1-871; A0A1D8PS42 1-785; O93807 1-502). As to the kind of experiment: MST.

As to “MBP-Spc72^231-268 (from UniProt Q5AGV5 231-268) (domain or fragment)”, the stoichiometry N in data set [1] is 2.

B1: His-Spc72^1-599 (C. albicans), from E. coli (domain or fragment, UniProt Q5AGV5 1-599, looked up)
chain: MSNLSINESNDNSNVSILSNKSGAQSSTNSSPNLIVFKQPEDLSIQLQQQQQGTQEDTPEEEEEEEEEMEQITQLEVQQENQPDTLSSSPFISRPNSPLDDIIRPQGTSSPSLTIRDSYSSQVDINISNLHKSLNEMRLSTDPVDNNNNNNKVNKNNPTNSDISNDDIITIDNLTPSRIQPKNISPWRQFRPTLRGSPESTPRSLFQNKPNLKFNNGLSPTNGSRDMVTNNIATTTKSREEELNKRIVNYKIQLKLMKNFLQELIDRNNLDPHEFHTLLRRNNNNIMNNENNPLSTSLSQTSTLEIQHQNLQIELDEALELNKQLYNKIETANKEISDKDLQISNYESRINLINYSVDELIYILINEYDKNNYSHGGSNTTSPGKETLQQSISAQLEVKLNVLKLELMTRLDQSHQYNNKPHDLFTPPYTSSEYGVSTNNVANKNDLEGYIHIIEDLIKTVDELELTCENYKANKNELQNQLVEQINESIRIKNNFQIMSNKFNQLRQSLSEKENDKNLDEFSKNNHQQQQQQQIQQLEQKLIEYEKCITILQDELDQYKQPSDTTNTTNNNNNNNNNNNRSSYSSYNNHRNSSLNELN
notes: source: E. coli BL21 CodonPlus-RIL, purified (Ni-TED); not shown: His6, N-terminal, kept
As to B1, the binding result in data set [2] and in data set [3] was “binds” each time.

B2: His-Spc72^1-599,3R (L243R/I247R/L254R), from E. coli (domain or fragment)
chain: MSNLSINESNDNSNVSILSNKSGAQSSTNSSPNLIVFKQPEDLSIQLQQQQQGTQEDTPEEEEEEEEEMEQITQLEVQQENQPDTLSSSPFISRPNSPLDDIIRPQGTSSPSLTIRDSYSSQVDINISNLHKSLNEMRLSTDPVDNNNNNNKVNKNNPTNSDISNDDIITIDNLTPSRIQPKNISPWRQFRPTLRGSPESTPRSLFQNKPNLKFNNGLSPTNGSRDMVTNNIATTTKSREEERNKRRVNYKIQRKLMKNFLQELIDRNNLDPHEFHTLLRRNNNNIMNNENNPLSTSLSQTSTLEIQHQNLQIELDEALELNKQLYNKIETANKEISDKDLQISNYESRINLINYSVDELIYILINEYDKNNYSHGGSNTTSPGKETLQQSISAQLEVKLNVLKLELMTRLDQSHQYNNKPHDLFTPPYTSSEYGVSTNNVANKNDLEGYIHIIEDLIKTVDELELTCENYKANKNELQNQLVEQINESIRIKNNFQIMSNKFNQLRQSLSEKENDKNLDEFSKNNHQQQQQQQIQQLEQKLIEYEKCITILQDELDQYKQPSDTTNTTNNNNNNNNNNNRSSYSSYNNHRNSSLNELN
notes: The cloning of the E. coli construct of this mutant is not described; also called Spc72^3R mutant; source: E. coli BL21 CodonPlus-RIL, purified (Ni-TED)
As for B2, in data set [4], the “fold lower binding efficiency compared to Spc72^1-599” value is 1.7 fold.

B3: His-GFP-Spc72^430-480 (domain or fragment, C. albicans, UniProt Q5AGV5 430-480, looked up)
chain: TSSEYGVSTNNVANKNDLEGYIHIIEDLIKTVDELELTCENYKANKNELQN
notes: Spc72, C. albicans, codons 430-480; source: E. coli BL21 CodonPlus-RIL; not shown: GFP, N-terminal, kept
Turning to B3, the binding result in data set [3] was “binds”.

B4: γ-tubulin (Tub4), C. albicans (natural protein, UniProt O93807 1-502, looked up)
chain: MPGETITLQVGQCGNQVGLQYWQQLATEHGIQSDGSSTPYPKDINDLQLQELNNSGSSPQSYPQQTKPNGKYRNDHPELFFTLSDSNTYTPRSILIDMEPSVIAKSTSALPMFNPRNVHLSNQGNGAANNWINGYKYGTEEEETLLNLIDREVDKCDNLSNFQLFHSVAGGTGSGVGSKMLEVISDRYGHKKLLNTFSIFPSNEDTSDVVVQPYNTILTLKRLIDYSDATFVFHNDSLNRIENILFNNNSNIQHDDNDLFLGANKLIALVSASVSNPLRFPGYMYSSMESIVSNLIPTPDLKFLTSSIAPFSTQKHNYLNEYDMLLELSNDRYKTNRVGGDTSYISMLNYLIGYNLDQREIRKGILKSQQRISFVPWVARSVLVVHGKKSPYLKNTNLEGIQVTNNTSMIDVFTKILKQFDLLIKRKAYLNRYYSSVEEENEVMEMFNESRESVKSIIDEYKACKEITYLDDDDEDDLEDGDGGGGGNGNGYNNIDDADMGI
notes: γ-tubulin (Tub4), C. albicans; Subunit of m1, written alone for the contacts in the cryo-EM structure
On to B4, for which the binding result in data set [5] is reported as “binds”.

B5: His-Spc72^291-599 (domain or fragment, C. albicans, UniProt Q5AGV5 291-599, looked up)
chain: NNPLSTSLSQTSTLEIQHQNLQIELDEALELNKQLYNKIETANKEISDKDLQISNYESRINLINYSVDELIYILINEYDKNNYSHGGSNTTSPGKETLQQSISAQLEVKLNVLKLELMTRLDQSHQYNNKPHDLFTPPYTSSEYGVSTNNVANKNDLEGYIHIIEDLIKTVDELELTCENYKANKNELQNQLVEQINESIRIKNNFQIMSNKFNQLRQSLSEKENDKNLDEFSKNNHQQQQQQQIQQLEQKLIEYEKCITILQDELDQYKQPSDTTNTTNNNNNNNNNNNRSSYSSYNNHRNSSLNELN
notes: source: E. coli, purified (Ni-TED for pull-downs; Ni-NTA and SEC for HX-MS, SEC-MALS and mass photometry); not shown: His6, N-terminal, kept
On to B5, for which the “stoichiometry N” value in data set [6] stood at 2.

NIATTTKSREEELNKRIVNYKIQLKLMKNFLQELIDRN (domain or fragment) [GST-CM1^231-268 (GST-Spc72^231-268)] yielded a stoichiometry N in data set [7] of 4. In data set [8], this molecule came in with a Kd of 105 nM.

B6: His-GFP-Spc72^300-350 (domain or fragment, C. albicans, UniProt Q5AGV5 300-350, looked up)
chain: QTSTLEIQHQNLQIELDEALELNKQLYNKIETANKEISDKDLQISNYESRI
notes: Spc72, C. albicans, codons 300-350; source: E. coli BL21 CodonPlus-RIL; not shown: GFP, N-terminal, kept
On to B6, for which the binding result in data set [3] was “binds”.

B7: His-GFP-Spc72^429-599 (domain or fragment, C. albicans, UniProt Q5AGV5 429-599, looked up)
chain: YTSSEYGVSTNNVANKNDLEGYIHIIEDLIKTVDELELTCENYKANKNELQNQLVEQINESIRIKNNFQIMSNKFNQLRQSLSEKENDKNLDEFSKNNHQQQQQQQIQQLEQKLIEYEKCITILQDELDQYKQPSDTTNTTNNNNNNNNNNNRSSYSSYNNHRNSSLNELN
notes: also called second coiled-coil module; source: E. coli BL21 CodonPlus-RIL, purified (Ni-TED); not shown: GFP, N-terminal, kept
With B7, the binding result in data set [3] was “binds”.

As a reminder, the stoichiometry N is a count of units in the complex or per binding partner. One may read the Kd as a measure of binding affinity in units of concentration. Low readings indicate a tighter complex, high ones a looser complex.
